Test results taken from US10766960 (dated 2020).
Numbering of substitutions follows the chain as printed.

T1: FcgRIIa H (human, UniProt P12318)
T1 chain: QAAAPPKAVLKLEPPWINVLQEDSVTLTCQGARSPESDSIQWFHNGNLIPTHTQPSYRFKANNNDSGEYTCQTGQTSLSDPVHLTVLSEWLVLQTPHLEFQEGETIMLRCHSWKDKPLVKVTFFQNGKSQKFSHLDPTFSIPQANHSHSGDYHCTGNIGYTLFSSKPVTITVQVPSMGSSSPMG

T2: FcgRIIb (human, UniProt P31994)
T2 chain: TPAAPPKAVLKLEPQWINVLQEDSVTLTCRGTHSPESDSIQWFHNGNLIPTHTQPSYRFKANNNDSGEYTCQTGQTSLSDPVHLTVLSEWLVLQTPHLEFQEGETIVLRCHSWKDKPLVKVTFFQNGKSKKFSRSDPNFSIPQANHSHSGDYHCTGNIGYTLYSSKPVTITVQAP

T3: FcgRIIa R (human, UniProt P12318)
T3 chain: T1 chain with H134R

T4: FcgRIa (human, UniProt P12314)
T4 chain: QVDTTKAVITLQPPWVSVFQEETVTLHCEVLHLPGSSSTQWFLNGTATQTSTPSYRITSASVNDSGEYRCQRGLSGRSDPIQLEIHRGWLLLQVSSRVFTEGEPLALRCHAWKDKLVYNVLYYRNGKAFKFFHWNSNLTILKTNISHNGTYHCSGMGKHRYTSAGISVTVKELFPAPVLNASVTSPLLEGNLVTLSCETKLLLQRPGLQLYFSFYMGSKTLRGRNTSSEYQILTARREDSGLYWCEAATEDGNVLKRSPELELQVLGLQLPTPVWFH

B1: H240-Kn120/H240-Hl073/L73-k0 (antibody)
chain 1: QDQLVQSGAEVKKPGASVKVSCKASGFNIKDTYIQWVRQAPGQGLEWMGRIDPLRKQTKYREKFEGRVTITADTSTNTAYMELSSLRSEDTAVYYCVRSGREFDYWGQGTLVTVSSASTKGPSVFPLAPSSKSTSGGTAALGCLVKDYFPEPVTVSWNSGALTSGVHTFPAVLQSSGLYSLSSVVTVPSSSLGTQTYICNVNHKPSNTKVDKKVEPKSCDKTHTCPPCPAPEYYWGPMVFLFPPKPKDTLMISRTPEVTCVVVDVSDEDPEVKFNWYVDGVEVHNAKTKPREEQYNATYRVVSVLTVLHQDWLNGKEYKCKVSNKDLPAPIEKTISKAKGQPREPQVCTLPPSRDELTKNQVSLWCLVKGFYPSDIAVEWESNGQPENNYKTTPPVLDSDGSFFLYSKLTVDKSRWQQGNVFSCSVMHEALHNHYTQKSLSLSP
chain 2: QDQLVQSGAEVKKPGASVKVSCKASGFNIKDTYIQWVRQAPGQGLEWMGRIDPLRKQTKYREKFEGRVTITADTSTNTAYMELSSLRSEDTAVYYCVRSGREFDYWGQGTLVTVSSASTKGPSVFPLAPSSKSTSGGTAALGCLVKDYFPEPVTVSWNSGALTSGVHTFPAVLQSSGLYSLSSVVTVPSSSLGTQTYICNVNHKPSNTKVDKKVEPKSCDKTHTCPPCPAPELLSGPSVFLFPPKPKDTLMISRTPEVTCVVVDVSHEEPEVKFNWYVDGVEVHNAKTKPREEQYNSTYRVVSVLTVLHQDWLNGKEYKCKVSNDALPKPIEETISKAKGQPREPQVYTLPPSRCELTKNQVSLSCAVKGFYPSDIAVEWESNGQPENNYKTTPPVLDSDGSFFLVSKLTVDKSRWQQGNVFSCSVMHEALHNHYTQKSLSLSP
chain 3: DIQMTQSPSSLSASVGDRVTITCRASQDIHKYIAWYQQKPGQAPRLLIQYTSTLQPGVPSRFSGSGSGTDYTFTISSLQPEDIATYYCLQYEQLRTFGGGTKVEIKRTVAAPSVFIFPPSDEQLKSGTASVVCLLNNFYPREAKVQWKVDNALQSGNSQESVTEQDSKDSTYSLSSTLTLSKADYEKHKVYACEVTHQGLSSPVTKSFNRGEC
B2: H240-Kn120/H240-Hl086/L73-k0 (antibody)
chain 1: B1 chain 1
chain 2: B1 chain 2 with S235I
chain 3: B1 chain 3
B3: H240-Kn120/H240-Hl089/L73-k0 (antibody)
chain 1: B1 chain 1
chain 2: B1 chain 2 with S235T
chain 3: B1 chain 3
B4: H240-Kn120/H240-Hl085/L73-k0 (antibody)
chain 1: B1 chain 1
chain 2: B1 chain 2 with S235V
chain 3: B1 chain 3
B5: H240-Kn180/H240-Hl068/L73-k0 (antibody)
chain 1: B1 chain 1 with E293R
chain 2: B1 chain 2 with S235G
chain 3: B1 chain 3
B6: H240-Kn179/H240-Hl068/L73-k0 (antibody)
chain 1: B1 chain 1 with E293K
chain 2: B1 chain 2 with S235G
chain 3: B1 chain 3
B7: GpH7-A5/GpH7-B3/GpL16-k0 (antibody)
chain 1: not shown
chain 2: not shown
chain 3: DIVMTQSPLSLPVTPGEPASISCQASESLVHSNRNTYLHWYLQKPGQSPQLLIYKVSNRFSGVPDRFSGSGSGTDFTLKISRVEAEDVGVYYCSQNTHVPPTFGQGTKVEIERTVAAPSVFIFPPSDEQLKSGTASVVCLLNNFYPREAKVQWKVDNALQSGNSQESVTEQDSKDSTYSLSSTLTLSKADYEKHKVYACEVTHQGLSSPVTKSFNRGEC
B8: GpH7-G1d/GpL16-k0 (antibody)
chain 1: not shown
chain 2: B7 chain 3
B9: GpH7-TA7/GpH7-TA45/GpL16-k0 (antibody)
chain 1: QVQLVQSGAEVKKPGASVTVSCKASGYTFTDYEMHWIRQPPGEGLEWIGAIDPKTGDTAYSESFQDRVTLTADKSTSTAYMELSSLTSEDTAVYYCTRFYSYTYWGQGTLVTVSSASTKGPSVFPLAPSSKSTSGGTAALGCLVKDYFPEPVTVSWNSGALTSGVHTFPAVLQSSGLYSLSSVVTVPSSSLGTQTYICNVNHKPSNTKVDKKVEPKSCDKTHTCPPCPAPEYLWGPSVFLFPPKPKDTLMISRTPEVTCVVVDVSHEDPEVKFNWYVDGVEVHNAKTKPREEQYNATYRVVSVLTVLHQDWLNGKEYKCKVSNKALPAPIEKTISKAKGQPREPQVYTLPPSRKELTKNQVSLTCLVKGFYPSDIAVEWESNGQPENNYKTTPPVLDSDGSFFLYSKLTVDKSRWQQGNVFSCSVMHEALHNRYTQKSLSLSP
chain 2: B9 chain 1 with K354D, R433H, K437E
chain 3: B7 chain 3

Target: FcgRIIIa V (human, UniProt P08637)
Sequence (P08637 17-208 F176V): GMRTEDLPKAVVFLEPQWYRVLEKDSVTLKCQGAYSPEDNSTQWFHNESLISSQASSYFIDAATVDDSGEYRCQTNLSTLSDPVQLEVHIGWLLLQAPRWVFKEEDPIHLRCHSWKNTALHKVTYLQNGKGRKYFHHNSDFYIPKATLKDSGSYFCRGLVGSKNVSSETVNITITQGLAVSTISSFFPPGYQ
Assay: SPR

Binder	Kd [nM]
B1	1.8
B2	14
B3	5.4
B4	6.2
B5	0.67
B6	0.98

Target: T1, FcgRIIa H
Assay: SPR

Binder	Kd [nM]
B1	21
B2	53
B3	41
B4	46
B5	33
B6	41

Target: T2, FcgRIIb
Assay: SPR

Binder	Kd [nM]
B7	3100
B8	3100
B9	18000

Target: T2, FcgRIIb
Assay: SPR
Remark: another data set of the same source

Binder	Kd [nM]
B1	210
B2	480
B3	190
B4	390
B5	240
B6	260

Target: T5, FcgRIIIa F (human, UniProt P08637)
T5 sequence (P08637 17-208): as the sequence (P08637 17-208 F176V) above, with V160F counted along it
Assay: SPR

Binder	Kd [nM]
B7	1600
B8	1200
B9	3300

Target: T3, FcgRIIa R
Assay: SPR

Binder	Kd [nM]
B1	15
B2	22
B3	14
B4	19
B5	21
B6	26

Target: T5, FcgRIIIa F
Assay: SPR
Remark: another data set of the same source

Binder	Kd [nM]
B1	8.2
B2	33
B3	12
B4	23
B5	3.1
B6	4.8

Target: T4, FcgRIa
Assay: SPR

Binder	Kd [nM]
B1	< 0.028
B2	1.4
B3	0.18
B4	87
B5	0.3
B6	0.3
